According to the DeepSol protein solubility set:

Assay: soluble on expression in E. coli; label from the status in PepcDB or PDB records

Sequence	soluble on expression in E. coli
MSLTVSNNFKMIYIASCGEGINAFHLVESTLVQFPDSDITVVKVPHIRTESQVDHLLDRVKDVESLIAHTIVEPNLRQYLVTKAEEHKIVTIDLMGQVLNKIETFLSIRPLGKPGLYRETHQVDLKQVTAIDFALAHDDGLRPESLDEAEIILVGLSRAGKTPLSMYMGVMGWKVANIPYVPGVPMPQTLDEVDRRRVIALNINIEQLLSHRKMRQESLGTSDMHAYSRRQEVEVEVQTAQKYYITKGFSMIDVSNKPIETSAEEIAEMITRRFKAQAHEGHHHHHH	not soluble
MASSMRSLFSDHGKYVESFRRFLNHSTEHQCMQEFMDKKLPGIIGRIGDTKSEIKILSIGGGAGEIDLQILSKVQAQYPGVCINNEVVEPSAEQIAKYKELVAKTSNLENVKFAWHKETSSEYQSRMLEKKELQKWDFIHMIQMLYYVKDIPATLKFFHSLLGTNAKMLIIVVSGSSGWDKLWKKYGSRFPQDDLCQYITSDDLTQMLDNLGLKYECYDLLSTMDISDCFIDGNENGDLLWDFLTETCNFNATAPPDLRAELGKDLQEPEFSAKKEGKVLFNNTLSFIVIEA	soluble
MKKSAFIFSDGELKRKDSTVLFESEDSKNYLPIEDISDIYIFGEVTVTKKFLELATQKEILLHFYNYNEYYVGTYYPREHYNSGFMILKQAEHYLDEEKRMAIAKKFIHGSVKNMLAVLKYYNNREKDLDRQITAISDLAEKIDEMDEINKLMAIEGNIREIYYGSFDIIVDDEYFEFGKRTKQPPKNRMNSLISFGNSILYTTVLSEIYKTHLDPRIGYLHSTNHRRFTLNLDVAEIFKPIIVDRVIFTLIGKKMLGEKHFEEKAGGIVLNDKGRKQFVAQMLEKLNATLMYKPLGREVSYRRLIRLELYKLEKHLMGEQEYKPYVASW	soluble
MGAAAAPEVNMELVGHFGGTTDAVDVAGNYAYVGQGQDFLILDITNPSSPVLVSKIMTEGFVRDIKVSRNYAYVADDDNGLVIVDISNPSSPTLKGSYNIPGYTYCITVSGNYAYVADNDGLVIVDISNPSDPILKGRYAGPTGDVAVYGNYAYVADWGNGLMIVDISNPSSPVLKGSYDTAGDIYGVSISGNYAYVADGDTGLVIVDISNPSSPTLKGNYNTAGIACDVSVLGNYAYVADNDNGLVIVDISDPSSPVLKGNGSTTGYAHGIEVSGNYAYVANSNTGLVIVDISNPSSPTLKGSCDTIVRAKSIAVSGNYAYIADWDNGLVIVDISNPSSPFLKGSCDTPRSAQGVAVSGNYAYVADDDGLVIVDISNPSFPILNKSYNTGGWAQGITVSGNYAYVIDMANGIFIVDISNPSSPILEGMYDTSPIIIENYDYTGSIWSVSVSGNYAYVADEGNGLLIVDISNPSSPILKGSYDTAGLAYDVAVSGNYAYVADSKNGLAIIDISNPSSPILVGNYNTSGYAECVSISGNYAYVAVDDSLVVVDISNPSSPILKGLYAGSAGDIAVSGNYVYASEGVNGLVILKANPESAFTVADFSSNITSGYAPLSIQFNDHSQNATSWNWDFGDGYNSTNQNPIHTYSSAGTYTVNLTVINENRTASKVAKIFVLNTSLEHHHHHH	not soluble
MIKFSIRGENIEVTEAIRDYVESKLTKIEKYFAKDQEIDARVNLKVYRERSSKVEVTIPLDSVTLRAEDVSQDMYGSIDLVVDKIERQIRKNKTKIAKKHREKVPTGQVFTTEFEAEEVDEIPEVQVVRTKNVTLKPMDVEEARLQMELLGHDFFIYTDSEDGATNILYRREDGNLGLIEAKLEHHHHHH	soluble
MTFRGPSPPRFGHSMDLPAYAIEAEGLYKTYAGTKTSPEKRALNGIDLKIPRGSIFGLLGPNGAGKSTFINILAGLVRKSSGTVRIWGRDIDQRPRDARAAIGVVPQELAADVFFTPRESLEVQAGFYGVPKSERRTDELLNALGLGDKAGAYVRQLSGGMKRRLMVAKAMVHQPPVLILDEPTAGVDVELRRQLWQYVTSLNELGVTIVLTTHYLEEAQELCDEIAIINRGEVVACEPTAKLLSRMDSRNVVVTPESPVTAAPVLEGFDTKLRSGGAFSVSYRTGQSSVEQVLAAVRASGLHIKDIATEDPDLEDVFVALTYGDPNAADPTKDLEHHHHHH	not soluble
MNNKYQMGVSTNLKYKGISLGIDFDIRQGGVMYSRTKDINYFTGNAIQTAYNDRNPLIVPNSVNKIVNGENVTYVENTTPITSSNIYKYWGDGGSDMGSCFLVDKSYVKLRSVVLGWDLPKRWLAKTPFQAVKVSAYGNNLFVWTPSSNTFIDPEMTSFGNDLEGNYGEYTANPSSRRFGFNLMVKF	not soluble
MPDHARMPRNLSSNKIAKTIAGEDLDEEEVLEMDAGQSAREEGRFVFECAWEVANKVGGIYTVLRSKAQISTEELGDQYCMFGPMKDGKWRLEVDPIEPENRTIRAAMKRFQADGFRCMYGRWLIEGYPKVILFDLGSGAVKMNEWKHELFEQCKIGIPHEDIESNDAVILGFMVALFLKHFRESVTSYTPLVVAHFHEWQAGVGLLMTRLWKLDIATVYTTHATLLGRHLCAGGADLYNNLDSFDLDAEAGKRKIYHQYCLERAACQTAHIFTTVSEITGLEAEHFLCRKPDVLTPNGLNVVKFAALHEFQNLHAQNKEKINQFIRGHFHGHLDFDLDKTLYFFTAGRYEFSNKGGDMFIESLARLNHYLKTTSDPRHMGVTVVAFLIYPAPANSFNVESLKGQAVTKQLKEAVDRIKEKVGQRIFDICLQGHLPEPEELMSPADNILLKRCIMSLHNSSLPPICTHNMIRADDPVLESLRRTSLFNKPEDRVKVVFHPEFLSSVSPLIGLDYEDFVRGCHLGVFPSYYEPWGYTPAECTVMGIPSVSTNLSGFGCFMQEHVEDHEQKGIYVIDRRHKAAEESVQELAQVMYDFCGQSRRQRIILRNSNEGLSALLDWQNLGVFYRDCRRLALERLHPDVDKIMRDNEGKVPSAATSRRPSIHSSDGEDDE	not soluble
MITQSSLLTYPLAGCLNRLANKSSQVKQRLQTHANETVCFRIDSLASLSVTITQDGHFTTAAKDTQAAVILDIAAELIPRIASGEMAAFDKIIICGDPELADTLLYMGKIFQAGIEENLSSVMGDVLARRATLTGQELVRWHLGSIRNLSRALGEFLSEEQPVTASRNRFHQLASEVESLQRRILRLEKRITALVPSFSSIAGNLPRTGR	not soluble
MSLDLPPGVVALVNGTRITQEQLDRAIAQSGAQANPQVAQALKQQLIARELFRQQAAKNPAYDKLPAVKQAMQEAHDAVITQAWLKDNIKPAPITEEQVKARYDAIVASLGDKEYKARVIQLGDDVTAAQVLAQLKQGGDFAKLAQQYSTAPNKVRGGDMDWVSFKVPVEEGKTQNLPLPLAREIAALGIGAASTAPVEVGSQRYIVKVEAARPTQVPGYDTVRPAIRQALETAELERVTVQVVGGLLKAAKIVQEGHHHHHH	soluble
MSLTVVLIVDDHHLIRAGAKNLLEGAFSGMRVEGAETVSDALAFLEADNTVDLILLDVNLPDAEAIDGLVRLKRFDPSNAVALISGETDHELIRAALEAGADGFIPKSADPQVLIHAVSLILEGEIFLPRSYLQGGRMAEVATPLDSSERPEQNLTPRQRDVFELMCKGLANKEIARLLDLSESTVKSHVSAIFKQIGTTSRSKTIAIFRQEGVALPSASEDEGHHHHHH	soluble
MGSDKIHHHHHHMASIALNNLTYTYPQASTPILDRVNLTLPRQSFILLTGPSGTGKSTLLKLIAGLLPLTPDDGTITFDGQALTASTANQRAQHVAMMFQNPNQQFAMDTVENELIFALENLQVPRDQIPARLLSALDFVGIRNLQSRLLNHLSGGEKQKVALAIIVAMDSDVILLDEPFASVDPTARAVLLDRLVELRNQHGKTIILADHDLSGYEQLVDQVVQIKDQHLQLIDRTTWSELFSAFTEQPQRSWSAPQRVERPCFQLDHVTLQAGDRQLLVPTTRQLLAQHNTLITGPNGSGKSTLFEALVRLHPYTGEIRYEGTPIDKLKRKRYARHVALLFQDAETQFLNITVAEELAQSKRYAYGDYFTADRIQTALVQLNLSGRDEQVIYTLSEGQKKKLQILLMLIMQSPVLLMDEPLKGLDLHSINALVALLQTTQAATKQTLIIISHQLTGLMPLIDYQLHFENHHLDWVVRS	not soluble
MKLTKTLLTTALFGASIFSFQSTAWADTPEQQFQQGLTAYEQSDYQTAFKLWLPMAEQGYAQAQGGLGMMYERGLGVKQDDFKAVNWYRKAAEQGDADAQLNLGAMYAIGHGVKQDGVEAVKWFRKAAEQGNAKAQNGLGMMYRGRLGIKQDYFKAVKWYRKAAEQGYGGAQVMLGFSYLSGKGVQVNKSLAKEWFGKACDNGEQVGCEYYSKLNRGER	not soluble
